Data reported in patent US20260035478A1 (TENEOBIO, published 2026).
Changes are numbered by the printed parent chain.

B1: anti-MSLN single domain antibody clone 394908 (VHH)
VHH: EVQLLESGGGLIQPGGSLRLSCAASGFSFSSYAMSWVRQAPGKGLEWVSNISGSGDSTYYADSVKGRFTISRDNSKNTLYLQMNSLRAEDTAVYYCAKPPSYYDFLSDPDYWGQGTLVTVSS
notes: Human VH single domain
B2: anti-MSLN single domain antibody clone 394940 (VHH)
VHH: B1 VHH with I12V, N50S, G53S, K98R
notes: Human VH single domain ('heavy chain antibody variable domain')
B3: anti-MSLN single domain antibody clone 392774 (VHH)
VHH: B1 VHH with I12V, S28T, S35T, N50A, S52T, Y80F, N84S, A88G
notes: Human VH single domain
B4: anti-MSLN single domain antibody clone 394955 (VHH)
VHH: B1 VHH with I12V, S28T, N50S, G53S
notes: Human VH single domain; tested as antibody-containing supernatant
B5: anti-MSLN single domain antibody clone 394982 (VHH)
VHH: B1 VHH with I12V, S28T, S30T, N50S, G53S
notes: as for B4
B6: anti-MSLN single domain antibody clone 394907 (VHH)
VHH: B1 VHH with S28T, N50S, G53S
notes: as for B4
B7: anti-MSLN single domain antibody clone 394979 (VHH)
VHH: EVQLLESGGGVVQPGRSLRLSCAASGFTFSSYDMHWVRQAPGKGLEWVAVISYDGSKKYSADSVKGRFTISRDNSKNTLYLQMNSLRAEDTAVYYCAKPPSYYDFLSDPDYWGQGTLVTVSS
notes: as for B4
B8: anti-MSLN single domain antibody clone 394901 (VHH)
VHH: B1 VHH with N50S, G53S
notes: as for B4
B9: anti-MSLN single domain antibody clone 394972 (VHH)
VHH: B1 VHH with I12V, S28T, N50A, G53S
notes: as for B4
B10: anti-MSLN single domain antibody clone 394991 (VHH)
VHH: B1 VHH with I12V, S28T, S35N, N50S, G53S, D56G, K98R
notes: as for B4
B11: anti-MSLN single domain antibody clone 394947 (VHH)
VHH: B1 VHH with N50S, G53S, N84K
notes: as for B4
B12: anti-MSLN single domain antibody clone 394985 (VHH)
VHH: B1 VHH with I12V, S28T, N50A, S52T, Y80F, N84S, A88G
notes: as for B4
B13: anti-MSLN single domain antibody clone 394930 (VHH)
VHH: B1 VHH with N50S, G53S, K98R
notes: as for B4
B14: anti-MSLN single domain antibody clone 394925 (VHH)
VHH: B1 VHH with N50A, G53S
notes: as for B4
B15: anti-MSLN single domain antibody clone 394966 (VHH)
VHH: B1 VHH with I12G, S28T, A33P, N50A
notes: as for B4
B16: anti-MSLN single domain antibody clone 394905 (VHH)
VHH: B1 VHH with I12G, S28T, A33P, N50S, G53S
notes: as for B4
B17: anti-MSLN single domain antibody clone 394910 (VHH)
VHH: B1 VHH with I12V, N50S, G53S
notes: as for B4
B18: anti-MSLN single domain antibody clone 394971 (VHH)
VHH: B1 VHH with N50Y
notes: as for B4
B19: anti-MSLN single domain antibody clone 394912 (VHH)
VHH: B1 VHH with N50S, G53S, S57G
notes: as for B4
B20: anti-MSLN single domain antibody clone 394921 (VHH)
VHH: B1 VHH with I12V, S28T
notes: as for B4

What follows are binders tested against T1, recombinant human MSLN (R&D Systems, #3265-MS) (human, UniProt Q13421 296-580, limits assumed) (assay: BLI (Octet HTX), antibody on AHC sensors, antigen in solution, 1:1 model).
T1 construct: Bought reagent; It was loaded on Ni-NTA sensors for the binning, so it apparently carries a His tag; also called antigen
Experimental: Table E3 summarizes affinity and epitope bin information for example anti-MSLN single domain antibodies of the present disclosure. The affinity of each single domain antibody to recombinant human MSLN (R&D Systems, #3265-MS) was measured by Bio-layer interferometry (BLI) using an Octet HTX. AHC (Anti-hIgG Fc Capture) sensors were used to immobilize test antibody at 5 μg/mL. After baseline readings, sensors were dipped into antigen solutions (starting at 500 nM followed by a 7-point, 2-fold dilution series). Association and dissociation were measured for 180 and 240 seconds respectively. Data were analyzed with Octet Data Analysis v11.0 HT (ForteBio) using a standard 1:1 binding model. Epitope bins for the single domain antibodies were determined by an in-tandem competition BLI binding experiment using an Octet HTX. The antigen (5 μg/mL) was loaded on the sensor Ni-NTA sensor followed by a baseline in kinetic buffer. The antigen-coated sensor was then dipped into a saturating concentration Antibody 1. A second baseline was now set for 300 seconds. Then the antigen-antibody 1 complex was dipped into Antibody 2 solution for 180 seconds and then allowed to dissociate.

T1 sequence (Q13421 other isoform, or with tags, fused parts or gaps limits assumed): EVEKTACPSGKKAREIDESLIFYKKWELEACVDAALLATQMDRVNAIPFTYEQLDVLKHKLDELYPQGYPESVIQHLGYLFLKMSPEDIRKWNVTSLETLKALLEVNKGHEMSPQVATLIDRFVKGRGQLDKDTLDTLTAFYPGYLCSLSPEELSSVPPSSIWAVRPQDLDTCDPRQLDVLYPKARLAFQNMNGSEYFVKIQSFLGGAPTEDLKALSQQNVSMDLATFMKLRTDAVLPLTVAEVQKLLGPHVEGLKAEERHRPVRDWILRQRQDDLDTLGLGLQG

First: B1
Second: B2
The Kd of the first is 3.1-fold higher: 64.6 nM for the first, 21 nM for the second.

B3 showed a Kd of 185 nM.

These binders were tested against T2, human mesothelin (MSLN) on cells (human, UniProt Q13421 296-598) (assay: flow cytometry dose curve, CHO cells expressing human MSLN).
T2 construct: whole, on cells; One molecule is used for human MSLN on transfected CHO cells and on HeLa cells; the cell line is named under assay; also called huMSLN
Experimental: (§1) Cell-binding dose curves for example anti-MSLN single domain antibodies described herein were generated using CHO cells expressing human MSLN (FIG. 1A), Hela cells (FIG. 1B), and CHO-OFFtgt cells (FIG. 1C). The single domain antibodies were tested at a starting concentration of 150 nM, followed by 3-fold serial dilutions for an 8-point dose curve. All washes and dilutions of cells, antibodies, and reagents were performed using flow buffer (1× phosphate buffered saline (PBS), 1% bovine serum albumin (BSA), and 0.1% NaN₃). Cells were pelleted and resuspended at 1×10⁶ cells/mL in flow buffer. Then, 50 μL cells were combined with 50 μL of test antibody and incubated 30 minutes at 4° C., followed by two wash steps with flow buffer. Cells were then resuspended in 50 μL PE-conjugated secondary diluted to 1.25 μg/mL (Southern Biotech #2042-09) and incubated for 20 minutes at 4° C. After two wash steps, cells were resuspended in flow buffer and analyzed using a BD Celesta system. PE mean fluorescence intensity was plotted as a fold over background (cells incubated with secondary detection antibody only).
To determine cell binding EC50 values for example anti-MSLN single domain antibodies of the present disclosure, cell binding dose curves were generated using Hela cells and CHO cells expressing human MSLN. The single domain antibodies were tested at a starting dose of 150 nM, followed by 3-fold serial dilutions for an 8-point dose curve as described in Example 2. The transformed data were plotted as an xy-graph using the non-linear regression curve fit (available in GraphPad Prism 8.4.3) to obtain the EC50 values (nM), which are summarized in Table E2.

T2 sequence (Q13421 other isoform, or with tags, fused parts or gaps limits assumed): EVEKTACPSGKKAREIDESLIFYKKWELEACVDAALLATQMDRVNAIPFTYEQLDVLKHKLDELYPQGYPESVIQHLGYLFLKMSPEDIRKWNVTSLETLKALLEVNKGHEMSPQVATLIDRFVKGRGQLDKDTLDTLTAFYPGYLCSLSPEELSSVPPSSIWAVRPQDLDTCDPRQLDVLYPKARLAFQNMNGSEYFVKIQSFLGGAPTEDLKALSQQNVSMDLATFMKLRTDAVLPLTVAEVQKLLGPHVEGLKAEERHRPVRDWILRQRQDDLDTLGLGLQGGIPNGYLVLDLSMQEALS

First: B1
Second: B2
The EC50 of the first is 11-fold higher: 71.1 nM for the first, 6.5 nM for the second. The second is the more potent here.

B3 showed an EC50 of 7.2 nM.

These binders were tested against T2, human mesothelin (MSLN) on cells (assay: flow cytometry dose curve, HeLa cells).
Experimental: as §1
To determine cell binding EC50 values for example anti-MSLN single domain antibodies of the present disclosure, cell binding dose curves were generated using Hela cells and CHO cells expressing human MSLN. […]

Compared with B2, B3 is 6-fold higher in EC50: 2.6 nM for the first, 15.6 nM for the second.

What follows are binders tested against T2, human mesothelin (MSLN) on cells (assay: flow cytometry, supernatant diluted 1:5, CHO cells expressing human MSLN).
Experimental: Pelleted CHO cells were resuspended in flow buffer (1× phosphate buffered saline (PBS), 1% bovine serum albumin (BSA), and 0.1% NaN₃) at 1.25×10⁶ cells/mL. Antibody containing supernatants were diluted 1:5 in flow buffer, and 40 μL cells plus 10 μL diluted antibody supernatant were incubated for 30 minutes at 4° C. Cells were washed with flow buffer and resuspended in 50 μL phycoerythrin (PE)-conjugated secondary antibody (Southern Biotech #2042-09) diluted in flow buffer to 1.25 μg/mL and incubated for 20 minutes at 4° C. After two wash steps, cells were resuspended in flow buffer and analyzed using a Guava easyCyte 8HT system. Table E1 summarizes the target binding activity of the anti-MSLN single domain antibodies as fold over background mean fluorescence intensity (MFI) signal.

First: B4
Second: B1
The “fold over background mean fluorescence intensity (MFI)” value (from here on “fold”) of the first is lower: 294 fold over background for the first, 508 fold over background for the second.

Compared with B5, B6 is higher in “fold” value: 405 fold over background for the first, 429 fold over background for the second.

Compared with B7, B8 is higher in “fold” value: 160 fold over background for the first, 400 fold over background for the second.

Going from B9 to B2, the “fold” value rises from 477 fold over background to 662 fold over background.

First: B10
Second: B3
The “fold” value of the first is higher: 281 fold over background for the first, 246 fold over background for the second.

Compared with B11, B12 is higher in “fold” value: 285 fold over background for the first, 378 fold over background for the second.

First: B13
Second: B14
The “fold” value of the first is higher: 540 fold over background for the first, 277 fold over background for the second.

Going from B15 to B16, the “fold” value falls from 356 fold over background to 227 fold over background.

Compared with B17, B18 is higher in “fold” value: 313 fold over background for the first, 373 fold over background for the second.

Compared with B19, B20 is lower in “fold” value: 404 fold over background for the first, 381 fold over background for the second.
